Here are results for 150 variants from PMC11480844 (2024).

B1: H2-Kb / Ed40 (parent complex)
chain 1: GDSVTQTEGPVTVSESESLIINCTYSATSIAYPNLFWYVRYPGEGLQLLLKVITAGQKGSSRGFEATYNKETTSFHLQKASVQESDSAVYYCALGDGYTGNYKYVFGAGTRLKVIA
chain 2: DSGVVQSPRHIIKEKGGRSVLTCIPISGHSNVVWYQQTLGKELKFLIQHYEKVERDKGFLPSRFSVQQFDDYHSEMNMSALELEDSAMYFCASSGASAETLYFGSGTRLTVL
chain 3: not shown
chain 4: IQKTPQIQVYSRHPPENGKPNILNCYVTQFHPPHIEIQMLKNGKKIPKVEMSDMSFSKDWSFYILAHTEFTPTETDTYACRVKHDSMAEPKTVYWDRDM
chain 5: SIINFEKL
B2: H2-Kb / Ed16-30 (parent complex)
chain 1: GEQVEQRPPHLSVREGDSAVIICTYTDPNSYYFFWYKQEPGAGLQLLMKVFSSTEINEGQGFTVLLNKKDKQLSLNLTAAHPGDSAVYFCAVSEPSSGQKLVFGQGTILKVYL
chain 2: EAAVTQSPRNKVAVTGGKVTLSCNQTNNHNNMYWYRQDTGHGLRLIHYSYGAGSTEKGDIPDGYKASRPSQENFSLILELATPSQTSVYFCAGRDTGQLYFGEGSKLTVL
chain 3: not shown
chain 4: B1 chain 4
chain 5: SIINFEKL
Note: test concentration or dose not given here.

Variants of B1 are the subject of the first assay. Briefly: % of reporter cells activated (NFAT-GFP), raw.
Turning to chain 5 N4F, the ratio to parent was 0.00938.

Consider chain 5 N4P, for which the ratio to parent is 0.00321.

On to chain 5 N4Y, for which the ratio to parent was determined as 0.0157.

chain 5 N4T: the ratio to parent came out at 0.00333.

chain 5 N4L: the ratio to parent stood at 0.086.

Consider chain 5 N4H, for which the ratio to parent was 0.0593.

Turning to chain 5 N4C, the ratio to parent amounted to 0.0253.

With chain 5 N4M, the ratio to parent was 0.00232.

For the variant chain 5 N4E, the ratio to parent was determined as 0.00154.

Take chain 5 N4S: the ratio to parent is 0.0147.

With chain 5 N4R, the ratio to parent was 0.362.

On to chain 5 N4D, for which the ratio to parent worked out at 0.00665.

chain 5 N4I: the ratio to parent is 0.02.

Regarding chain 5 N4A, the ratio to parent was 0.0166.

Consider chain 5 N4W, for which the ratio to parent is 0.00287.

For chain 5 N4G, the ratio to parent was found to be 0.0118.

For the variant chain 5 S1N, the ratio to parent was 0.31.

Turning to chain 5 S1V, the ratio to parent was 0.738.

Regarding chain 5 S1F, the ratio to parent is 0.765.

Consider chain 5 S1K, for which the ratio to parent was 0.399.

Take chain 5 S1P: the ratio to parent came out at 0.576.

chain 5 S1D: the ratio to parent was found to be 0.892.

With chain 5 S1Q, the ratio to parent came to 0.681.

Consider chain 5 S1E, for which the ratio to parent was 0.432.

For chain 5 S1C, the ratio to parent was found to be 0.615.

On to chain 5 S1W, for which the ratio to parent was 0.335.

With chain 5 S1Y, the ratio to parent was 0.977.

chain 5 S1L: the ratio to parent is 0.466.

For chain 5 S1G, the ratio to parent was found to be 1.

As for chain 5 I2S, the ratio to parent was determined as 1.1.

Turning to chain 5 I2G, the ratio to parent amounted to 0.922.

For chain 5 I2L, the ratio to parent is 1.14.

Regarding chain 5 I2R, the ratio to parent is 0.958.

Consider chain 5 I2T, for which the ratio to parent is 1.18.

With chain 5 I2N, the ratio to parent was found to be 0.757.

Regarding chain 5 I2V, the ratio to parent was 1.15.

As to chain 5 I2Q, the ratio to parent came out at 0.697.

With chain 5 I2E, the ratio to parent was found to be 0.869.

On to chain 5 I2A, for which the ratio to parent was determined as 1.13.

Consider chain 5 E6H, for which the ratio to parent amounted to 0.172.

Take chain 5 E6W: the ratio to parent amounted to 0.0475.

Regarding chain 5 E6P, the ratio to parent turned out to be 0.164.

For chain 5 E6Q, the ratio to parent came out at 0.527.

Regarding chain 5 E6N, the ratio to parent was 0.287.

On to chain 5 E6A, for which the ratio to parent was 0.445.

chain 5 E6F: the ratio to parent was found to be 0.0664.

As for chain 5 E6G, the ratio to parent came to 0.464.

Take chain 5 E6C: the ratio to parent is 0.0158.

Consider chain 5 E6I, for which the ratio to parent stood at 0.00278.

Take chain 5 E6R: the ratio to parent was determined as 0.675.

Consider chain 5 I3C, for which the ratio to parent was 0.523.

Regarding chain 5 I3V, the ratio to parent came to 0.69.

Consider chain 5 I3N, for which the ratio to parent turned out to be 0.534.

chain 5 I3M: the ratio to parent came to 0.462.

With chain 5 I3Y, the ratio to parent was determined as 0.762.

As for chain 5 I3T, the ratio to parent was 0.423.

With chain 5 I3F, the ratio to parent was found to be 0.641.

Regarding chain 5 I3G, the ratio to parent stood at 0.319.

In the case of chain 5 I3Q, the ratio to parent worked out at 0.329.

Consider chain 5 I3D, for which the ratio to parent is 0.166.

Consider chain 5 I3R, for which the ratio to parent is 0.207.

With chain 5 I3W, the ratio to parent amounted to 0.488.

For chain 5 I3L, the ratio to parent came out at 0.895.

As to chain 5 L8V, the ratio to parent worked out at 0.831.

Take chain 5 L8G: the ratio to parent is 0.595.

Take chain 5 L8P: the ratio to parent turned out to be 0.651.

Turning to chain 5 L8Y, the ratio to parent turned out to be 0.96.

In the case of chain 5 L8Q, the ratio to parent was found to be 0.716.

Take chain 5 L8E: the ratio to parent was found to be 0.612.

On to chain 5 L8T, for which the ratio to parent came to 0.885.

As to chain 5 L8H, the ratio to parent was found to be 0.822.

Turning to chain 5 L8D, the ratio to parent came to 0.546.

With chain 5 L8F, the ratio to parent stood at 0.993.

For chain 5 L8M, the ratio to parent turned out to be 0.897.

Take chain 5 F5N: the ratio to parent worked out at 0.891.

Turning to chain 5 F5L, the ratio to parent turned out to be 0.906.

Turning to chain 5 F5S, the ratio to parent was 1.09.

Take chain 5 F5W: the ratio to parent was determined as 1.02.

With chain 5 F5D, the ratio to parent came to 0.49.

For chain 5 F5K, the ratio to parent was 0.685.

Regarding chain 5 F5Q, the ratio to parent was determined as 0.601.

Regarding chain 5 F5E, the ratio to parent came out at 0.52.

As to chain 5 F5R, the ratio to parent is 0.938.

For the variant chain 5 F5I, the ratio to parent turned out to be 0.615.

Turning to chain 5 K7E, the ratio to parent turned out to be 0.00653.

For the variant chain 5 K7S, the ratio to parent stood at 0.648.

Regarding chain 5 K7M, the ratio to parent was found to be 0.0429.

chain 5 K7R: the ratio to parent worked out at 0.622.

For chain 5 K7P, the ratio to parent came out at 0.296.

Take chain 5 K7D: the ratio to parent is 0.0102.

On to chain 5 K7I, for which the ratio to parent turned out to be 0.165.

Consider chain 5 K7W, for which the ratio to parent turned out to be 0.644.

As for chain 5 K7F, the ratio to parent worked out at 0.0192.

As for chain 5 K7L, the ratio to parent turned out to be 0.192.

For chain 5 K7V, the ratio to parent was 0.224.

With chain 5 K7A, the ratio to parent came out at 0.343.

With chain 5 K7T, the ratio to parent came out at 0.224.

In another assay the parent is B2. The assay can be described thus: % of reporter cells activated (NFAT-GFP), raw.
Turning to chain 5 F5C, the ratio to parent was 1.23.

In the case of chain 5 F5E, the ratio to parent stood at 0.752.

In the case of chain 5 F5L, the ratio to parent amounted to 1.21.

On to chain 5 K7D, for which the ratio to parent is 0.162.

Take chain 5 K7W: the ratio to parent is 0.74.

As to chain 5 K7G, the ratio to parent came out at 0.381.

For the variant chain 5 K7E, the ratio to parent is 0.0275.

As to chain 5 K7T, the ratio to parent stood at 0.716.

chain 5 K7I: the ratio to parent stood at 0.61.

Turning to chain 5 K7V, the ratio to parent was determined as 0.687.

Regarding chain 5 N4H, the ratio to parent came to 0.165.

In the case of chain 5 N4R, the ratio to parent was found to be 0.318.

For chain 5 N4C, the ratio to parent came to 0.0363.

As for chain 5 N4S, the ratio to parent stood at 0.0223.

Take chain 5 N4A: the ratio to parent turned out to be 0.0158.

As to chain 5 N4M, the ratio to parent stood at 0.0762.

For the variant chain 5 N4K, the ratio to parent is 0.0853.

Consider chain 5 N4T, for which the ratio to parent came to 0.0259.

Take chain 5 I3P: the ratio to parent was found to be 0.64.

Consider chain 5 I3K, for which the ratio to parent stood at 0.779.

For chain 5 I3M, the ratio to parent came to 0.425.

For chain 5 I3V, the ratio to parent was found to be 1.11.

Regarding chain 5 I3H, the ratio to parent came out at 0.558.

Take chain 5 I3N: the ratio to parent was determined as 0.507.

chain 5 S1L: the ratio to parent is 0.313.

On to chain 5 S1A, for which the ratio to parent worked out at 0.631.

Turning to chain 5 S1Y, the ratio to parent amounted to 0.55.

Regarding chain 5 S1E, the ratio to parent amounted to 0.0535.

On to chain 5 S1M, for which the ratio to parent amounted to 0.632.

With chain 5 S1C, the ratio to parent came out at 0.186.

Turning to chain 5 S1Q, the ratio to parent was 0.323.

Regarding chain 5 S1P, the ratio to parent worked out at 0.0976.

Consider chain 5 S1F, for which the ratio to parent came out at 0.025.

Consider chain 5 E6I, for which the ratio to parent came out at 0.00701.

Consider chain 5 E6A, for which the ratio to parent was determined as 0.508.

As for chain 5 E6L, the ratio to parent was 0.387.

Turning to chain 5 E6M, the ratio to parent amounted to 0.399.

Take chain 5 E6S: the ratio to parent is 0.609.

With chain 5 I2N, the ratio to parent was found to be 0.951.

chain 5 I2Y: the ratio to parent amounted to 0.774.

For the variant chain 5 I2K, the ratio to parent was 0.978.

Regarding chain 5 I2P, the ratio to parent turned out to be 1.06.

In the case of chain 5 I2E, the ratio to parent was 1.21.

As to chain 5 I2A, the ratio to parent was 1.2.

As to chain 5 I2S, the ratio to parent was determined as 1.19.

As for chain 5 L8N, the ratio to parent is 0.798.

For the variant chain 5 L8G, the ratio to parent amounted to 0.904.

With chain 5 L8Q, the ratio to parent came to 1.13.

As to chain 5 L8K, the ratio to parent stood at 1.

On to chain 5 L8M, for which the ratio to parent was 1.08.

As to chain 5 L8H, the ratio to parent came to 1.06.

As to chain 5 L8A, the ratio to parent turned out to be 1.04.

As for chain 5 L8S, the ratio to parent was 1.04.
